The chains are these.
B2: CD19/CD20 bispecific CAR (Leu16 scFv-(G4S)4-FMC63 scFv-IgG4 hinge-CD28 TM-4-1BB-CD3 zeta) (other)
chain: DIVLTQSPAILSASPGEKVTMTCRASSSVNYMDWYQKKPGSSPKPWIYATSNLASGVPARFSGSGSGTSYSLTISRVEAEDAATYYCQQWSFNPPTFGGGTKLEIKGSTSGGGSGGGSGGGGSSEVQLQQSGAELVKPGASVKMSCKASGYTFTSYNMHWVKQTPGQGLEWIGAIYPGNGDTSYNQKFKGKATLTADKSSSTAYMQLSSLTSEDSADYYCARSNYYGSSYWFFDVWGAGTTVTVSSGGGGSGGGGSGGGGSGGGGSEVKLQESGPGLVAPSQSLSVTCTVSGVSLPDYGVSWIRQPPRKGLEWLGVIWGSETTYYNSALKSRLTIIKDNSKSQVFLKMNSLQTDDTAIYYCAKHYYYGGSYAMDYWGQGTSVTVSSGSTSGSGKPGSGEGSTKGDIQMTQTTSSLSASLGDRVTISCRASQDISKYLNWYQQKPDGTVKLLIYHTSRLHSGVPSRFSGSGSGTDYSLTISNLEQEDIATYFCQQGNTLPYTFGGGTKLEITESKYGPPCPPCPMFWVLVVVGGVLACYSLLVTVAFIIFWVKRGRKKLLYIFKQPFMRPVQTTQEEDGCSCRFPEEEEGGCELRVKFSRSADAPAYQQGQNQLYNELNLGRREEYDVLDKRRGRDPEMGGKPRRKNPQEGLYNELQKDKMAEAYSEIGMKGERRRGKGHDGLYQGLSTATKDTYDALHMQALPPR

For test [1], the target named is B2. Put plainly: flow cytometry, staining of T cells (donor 1917) transduced with CD19/20 CAR lentiviral vector. An excerpt: Direct Detection of CAR+ cells by Flow Cytometry. Direct measurement was used to detect expression of CD 19/20 CAR. Because quantification of a tEGFR protein may not provide an accurate measurement of surface CAR expression, tEGFR was removed from the Lentiviral vector as described herein, and instead utilized antibodies which bound to the scFv domains of the CD19/20 CAR protein to report surface CAR expression.
A general note: A flow cytometer gives signals particle by particle.

For another test, the target named is T1, CD19 (human, UniProt P15391 20-556).
T1 sequence (looked up): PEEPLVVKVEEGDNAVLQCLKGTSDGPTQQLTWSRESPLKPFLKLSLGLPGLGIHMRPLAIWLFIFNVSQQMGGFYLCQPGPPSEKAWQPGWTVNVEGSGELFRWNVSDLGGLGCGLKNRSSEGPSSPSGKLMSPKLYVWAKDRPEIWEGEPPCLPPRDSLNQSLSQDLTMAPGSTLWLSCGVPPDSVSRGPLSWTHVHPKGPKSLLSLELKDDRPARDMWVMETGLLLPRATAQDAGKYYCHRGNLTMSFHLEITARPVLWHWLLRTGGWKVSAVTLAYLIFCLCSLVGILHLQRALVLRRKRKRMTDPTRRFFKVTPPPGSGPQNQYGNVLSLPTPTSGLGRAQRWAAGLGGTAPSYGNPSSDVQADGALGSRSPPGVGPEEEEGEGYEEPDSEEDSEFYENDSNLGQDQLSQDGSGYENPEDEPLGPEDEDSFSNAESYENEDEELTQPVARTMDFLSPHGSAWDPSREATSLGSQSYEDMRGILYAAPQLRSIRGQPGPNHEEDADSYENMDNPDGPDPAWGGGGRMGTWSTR
The test can be described thus: cell-based or functional assay.

B1: CD20 Protein-Biotin (Acros) (other, UniProt P11836 1-297, looked up)
chain: MTTPRNSVNGTFPAEPMKGPIAMQSGPKPLFRRMSSLVGPTQSFFMRESKTLGAVQIMNGLFHIALGGLLMIPAGIYAPICVTVWYPLWGGIMYIISGSLLAATEKNSRKCLVKGKMIMNSLSLFAAISGMILSIMDILNIKISHFLKMESLNFIRAHTPYINIYNCEPANPSEKNSPSTQYCYSIQSLFLGILSVMLIFAFFQELVIAGIVENEWKRTCSRPKSNIVLLSAEEKKEQTIEIKEEVVGLTETSSQPKNEEDIEIIPIQEEEEEETETNFPEPPQDQESSPIENDSSP
modifications: biotin (site not stated)
notes: Bought detection reagent; construct not described
For the molecule B1, in test [1], the “% Positive Cells” value stood at 68.1%.
Regarding B2, the “IFN-γ and IL-2 production, 1:1 effector:target cell ratio or greater, 24 hours, target cells lacking CD20” value with CD19 is above 1000.

The values are drawn from patent publication US20260152553A1 (LYELL IMMUNOPHARMA, published 2026).
